{"source": "patent US10494417B2", "about": "“Peptide inhibitors of BCR-ABL oligomerization” (University of Utah Research Foundation, priority 2014, dated 2019)", "key": {"[1]": {"molecular_target": "T1, isolated CC domain from Bcr-Abl (Homo sapiens, UniProt P11274)", "T1 construct": "using the isolated CC domain from Bcr-Abl instead of the full-length protein; expressed in transfected cells", "T1 sequence (P11274 1-72)": "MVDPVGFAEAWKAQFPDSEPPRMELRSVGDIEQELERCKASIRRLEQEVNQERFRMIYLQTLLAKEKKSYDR", "test": "Mammalian two-hybrid assay of coiled-coil dimerization", "assay_type": "cell-based", "conditions": "isolated CC domain from Bcr-Abl", "protocol": "(§1) As mentioned above, the design process of CC^mut3 involved favoring hetero-dimerization with Bcr-Abl while avoiding homo-dimerization with another CC^mut3 molecule. Thus, a mammalian two-hybrid assay was performed to measure the likelihood of each scenario, using the isolated CC domain from Bcr-Abl instead of the full-length protein (for ease of use)."}, "[2]": {"molecular_target": "T2, isolated CC domain from Bcr-Abl (Homo sapiens, UniProt P11274, C38A/E48R/K39E/L45D/Q60E/S41R)", "T2 construct": "using the isolated CC domain from Bcr-Abl instead of the full-length protein; expressed in transfected cells", "T2 sequence (P11274 1-72 C38A/K39E/S41R/L45D/E48R/Q60E)": "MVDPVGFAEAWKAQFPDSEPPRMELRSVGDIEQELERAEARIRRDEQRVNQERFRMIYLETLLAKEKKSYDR", "test": "Mammalian two-hybrid assay of coiled-coil dimerization", "assay_type": "cell-based", "conditions": "CC^mut3 with CC^mut3", "protocol": "as §1"}, "[3]": {"test_system": "CD34+ cells from newly diagnosed CML patients", "test": "Colony forming assay of CD34+ cells from newly diagnosed CML patients", "assay_type": "cell-based, human", "conditions": "for colony formation, in words: day 14 CFU-GM, lentiviral CCmut3 or 2.5 μM imatinib vs EV", "protocol": "Primary cells were seeded in Methocult H4230 (Stem Cell Technologies) as described previously (Fleischman, A. G., et al. (2011). Blood 118, 6392-6398). Briefly, lentivirus-infected (GFP^+) cells were isolated by FACS and resuspended in RPMI1640. Cells were plated in Methocult H4230 at 1,000 cells/mL supplemented with 1× StemSpan CC100 cytokine mix (StemCell Technologies) with or without TKI as indicated in each experiment. Plates were incubated at 37° C. in a 5% CO2 humidified incubator for 14 days. Colony forming units of granulocyte-macrophage (CFU-GM) were counted on day 14 using an inverted microscope.\nFollowing selection of transfected cells by cell sorting, methylcellulose colony assays were performed by plating in 0.9% methylcellulose (Stem Cell Technologies; M3234 for Ba/F3 BCR-ABL1 native and mutant lines; M3434 for Ba/F3 parental cells; H4230 for CML patient samples). mCherry-positive Ba/F3 cells (1.1×10^3 cells/plate) or GFP-positive primary CML CD34+ cells (1×10^3 cells/plate) were seeded per dish in duplicate. In the case of CML patient samples, cells were plated in the presence of 1× StemSpan CC100 cytokine cocktail (StemCell Technologies). All cells were plated with or without the indicated TKI in three or more independent experiments. Plates were incubated at 37° C. in a 5% CO2 humidified incubator. Colonies were counted 7-14 days later in an area of 50 μm2 per dish using an inverted microscope."}, "K562 cells [4]": {"test_system": "K562 cells", "test": "Peptide internalization Western blot, K562 cells", "assay_type": "cell-based, human", "conditions": "30 μM, 1.5 hours, Western blot of cell lysates", "protocol": "1.0×10^6 cells resuspended in RPMI or DMEM were seeded in a CellStar 6 well plate (Sigma Aldrich). Cells were then treated with the peptides (CPP-CCmut3, CPP-CCwt, CCmut3, and CPP-His) at a final concentration 30 uM. This is a standard concentration used in cell-penetrating peptide studies. For the kinase activity Western blot, cells were treated with peptides for 16 hours.\nFor the internalization experiment, cells were treated with peptides for 1.5 hours followed by a 15 minute incubation at 37° C. with heparin sulfate, 0.5 mg/mL (a gift from Kuby Balagurunathan, University of Utah). Cells were centrifuged and resuspended in 1 mL plain RPMI. Trypsin was added to a final concentration of 0.1% w/v, and the cells were incubated at 37° C. for 10 minutes. At that time 1 mL FBS was added to neutralize the trypsin. Cells were then centrifuged at 500×g for 10 minutes, followed by 3 rounds of washes with 5 mL cold PBS.\nFor both kinase activity and internalization Western blots, cells were resuspended in 100 μL of RIPA lysis buffer (Cell Signaling, Danvers, Mass., USA) with 100× protease/phosphatase inhibitor added (Cell Signaling) and transferred into a pre-chilled microcentrifuge tube. Cells were then sonicated, centrifuged at 12,000×g for 15 minutes, and then the supernatant was transferred into a fresh, pre-chilled microcentrifuge tube. […]"}, "K562 cells [5]": {"test_system": "K562 cells", "test": "7-AAD and Annexin V staining of protein-treated K562 cells", "assay_type": "cell-based, human", "conditions": "proteins 30 μM, imatinib 2.5 μM; 48 and 72 hours after treatment", "protocol": "0.5 μL of 1 mM 7-AAD (Invitrogen) was added to each sample, followed by a 45 minute incubation on ice. […] Analysis was performed using the FACS Canto-II (BD BioSciences, University of Utah Core Facility) with FACS Diva software. 7-AAD and APC were excited at 488 and 635 nm wavelengths, and emissions were detected at 660 nm. Percentage of apoptosis/necrosis was calculated by the percentage of cells that stained positive for 7-AAD and/or APC. Independent treatments were tested three times (n=3)."}}, "note": "“Also recorded” adds a separate entry of the source.", "data": [{"molecule": "CCmut3: modified Bcr-Abl coiled-coil domain (residues 1-72) with mutations C38A, K39E, S41R, L45D, E48R, Q60E (protein) MVDPVGFAEAWKAQFPDSEPPRMELRSVGDIEQELERAEARIRRDEQRVNQERFRMIYLETLLAKEKKSYDR", "values": [{"measurement": "hetero-dimerization with BCR-ABL", "setting": "[1]", "value": "favors hetero-dimerization; also recorded: strongly favors hetero-dimerization"}, {"measurement": "homo-oligomerization", "setting": "[2]", "value": "strongly disfavoring homo-oligomerization"}, {"measurement": "colony formation, in words", "setting": "[3]", "value": "equally effective in reducing colony number"}, {"measurement": "colony formation, in words", "setting": "[3]; listed as CC^mut3", "value": "reduced to similar degree"}, {"measurement": "inhibition of colony formation", "setting": "[3]; four newly diagnosed patient samples, day 14, normalized to EV", "value": "~60", "unit": "%"}, {"measurement": "internalization into cells", "setting": "K562 cells [4]", "value": "unable to enter the cells; also recorded: not internalized; also recorded: did not enter"}, {"measurement": "induction of apoptosis/necrosis (7-AAD and/or Annexin V positive cells)", "setting": "K562 cells [5]", "value": "did not induce apoptosis"}]}]}
